Test results from paper PMC7614001.

T1: ALK3 ECD (Homo sapiens), P36894
T1 chain: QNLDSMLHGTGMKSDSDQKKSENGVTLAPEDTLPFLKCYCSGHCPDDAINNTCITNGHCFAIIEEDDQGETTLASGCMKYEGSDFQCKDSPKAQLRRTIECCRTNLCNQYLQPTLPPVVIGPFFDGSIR

T2: ALK2 ECD (Homo sapiens), Q04771
T2 chain: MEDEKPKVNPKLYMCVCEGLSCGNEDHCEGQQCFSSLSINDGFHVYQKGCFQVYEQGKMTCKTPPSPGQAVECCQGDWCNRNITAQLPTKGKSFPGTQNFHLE


How the values were obtained:
[1] = biological target: T1, ALK3 ECD (Homo sapiens), P36894; test: BLI; conditions: remark: other sources report otherwise
[2] = biological target: T2, ALK2 ECD (Homo sapiens), Q04771; test: BLI; conditions: remark: other sources report otherwise

| Kd [1] [nM] | Kd [2] [nM] | Binder |
| --- | --- | --- |
| 19 | 18.4 | BMP-7, P18075 (protein) STGSKQRSQNRSKTPKNQEALRMANVAENSSSDQRQACKKHELYVSFRDLGWQDWIIAPEGYAAYYCEGECAFPLNSYMNATNHAIVQTLVHFINPETVPKPCCAPTQLNAISVLYFDDSSNVILKKYRNMVVRACGCH |
|  | 133 | BMP-9, Q9UK05 (protein) SAGAGSHCQKTSLRVNFEDIGWDSWIIAPKEYEAYECKGGCFFPLADDVTPTKHAIVQTLVHLKFPTKVGKACCVPTKLSPISVLYKDDMGVPTLKYHYEGMSVAECGCR |
